Consider one molecule from patent publication US7745587 (DYAX, dated 2010).

Assay [1] has as its target T1, human MMP-14 (human, UniProt P50281 112-541, limits assumed).
T1 construct: Soluble MMP-14 used in selection, ELISA (biotinylated) and enzymatic assays; also called hMMP-14; bhMMP-14 (biotinylated human MMP-14)
Briefly: enzymatic inhibition assay, 2 nM MMP-14, 14 uM substrate Mca-Pro-Leu-Ala-Cys(Mob)-Trp-Ala-Arg-Dap(Dnp)-NH2; rate against [IgG] 0-50 nM. The procedure:
(§1) K_i studies were performed using an enzymatic assay at substrate [Mca-Pro-Leu-Ala-Cys(Mob)-Trp-Ala-Arg-Dap(Dnp)-NH_2] concentrations of 10 μM, 14 μM and 18 μM. […] The concentration of MMP-14 was 2 nM.

For assay [2], the target named is mouse MMP-14 in arthritic knee joints of C57Bl6 mice (mouse, UniProt P53690 112-582). Briefly: immunohistochemistry of mouse joints, acute SCW-induced arthritis.
Assay [3] has as its target T1, human MMP-14. The assay is described as follows: enzymatic assay, IgG, 2 nM MMP-14, peptide substrate at 10, 14, 18 µM; highest Ki measured. The procedure: as §1
Assay [4] deals with T1, human MMP-14. Briefly: enzymatic inhibition assay, 2 nM MMP-14, 10 uM substrate Mca-Pro-Leu-Ala-Cys(Mob)-Trp-Ala-Arg-Dap(Dnp)-NH2; rate against [IgG] 0-50 nM. The procedure: as §1
For assay [5], the target named is T1, human MMP-14. The assay is described as follows: enzymatic inhibition assay against 2 pM hMMP-14; rate (dF/min) against [I] 0-100 nM.
The target of assay [6] is T1, human MMP-14. The assay is described as follows: cell-based or functional assay.

B1: M0038-F01 IgG (antibody, V domains shown)
VH: EVQLLESGGGLVQPGGSLRLSCAASGFTFSLYSMNWVRQAPGKGLEWVSSIYSSGGSTLYADSVKGRFTISRDNSKNTLYLQMNSLRAEDTAVYYCARGRAFDIWGQGTMVTVSS
VL: DIQMTQSPSSLSAFVGDKVTITCRASQSVGTYLNWYQQKAGKAPELLIYATSNLRSGVPSRFSGSGSGTDFTLTINTLQPEDFATYYCQQSYSIPRFTFGPGTKVDIK
notes: IgG of the Fab
In general, Ki refers to a dissociation constant, usually derived from enzyme kinetics or from competition with a known ligand. A low value points to a stronger hold on the target. A word on the IC50: it is the point on the concentration scale where inhibition reaches its midpoint. A lower IC50 goes with inhibition by little substance. Consider B1, for which the Ki in the assay with human MMP-14 [1] came to 0.9 nM; in the assay with human MMP-14 [3], 1.2 nM; with human MMP-14 [4], 0.6 nM. Moreover, the binding result in assay [2] is listed as “binds”. For the same molecule, in the assay with human MMP-14 [5], the IC50 was found to be 8.3 nM. Moreover, the “IC50 of MMP-14 inhibition (MMP-14 at 2 pM), IgG” value in the assay with human MMP-14 [6] came to 2 nM.
